Source: PMC4528141, “Generating a Metal-responsive Transcriptional Regulator to Test What Confers Metal Sensing in Cells*”

Target: T1, FrmR (Salmonella enterica serovar Typhimurium …, UniProt A0A719I766 1-91)
T1 sequence: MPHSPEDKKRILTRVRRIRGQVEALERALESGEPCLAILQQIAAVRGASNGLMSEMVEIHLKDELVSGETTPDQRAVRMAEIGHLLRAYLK
Assay: fluorescence anisotropy; apo, 5 mM EDTA; 10 nM DNA; 2 tetramers:DNA, equal affinity; 10 mM HEPES pH 7.0, 60 mM NaCl, 240 mM KCl, 25 C, anaerobic; 5 mM EDTA (apo) or ZnCl2 (5 uM in text, 20 uM in Table 2)
Conditions: protein: recombinant; tags: none stated (pET29a NdeI; reverse primer carries native stop); chain copies: 8; label: 5' HEX on strand 1; blunt

B1: frmRAPro (dsDNA)
DNA 1: TTCTGATAGTATACCCCCCTATAGTATATGGAG
DNA 2: CTCCATATACTATAGGGGGGTATACTATCAGAA
In the case of B1, the Kd is reported as 99.4 nM.
